Laboratory results as given in publication PMC5260909.

Assays:
[1] = target: NMDAR of rat GluN1-1b WT with WT GluN2A, on transfected HEK-293 cells (rat) (UniProt Q00959)
[2] = target: Endogenous NMDAR (GluN1 subunit) of mouse cortical neurons and mouse brain (mouse (endogenous in cortical neurons of Swiss mice)) (UniProt P35438)
[3] = target: NMDAR of rat GluN1-1b WT with WT GluN2A, on transfected HEK-293 cells (rat) (UniProt Q00959); remark: listed apart in the source

UniProt Q00959, sequence (Q00959 whole entry, looked up): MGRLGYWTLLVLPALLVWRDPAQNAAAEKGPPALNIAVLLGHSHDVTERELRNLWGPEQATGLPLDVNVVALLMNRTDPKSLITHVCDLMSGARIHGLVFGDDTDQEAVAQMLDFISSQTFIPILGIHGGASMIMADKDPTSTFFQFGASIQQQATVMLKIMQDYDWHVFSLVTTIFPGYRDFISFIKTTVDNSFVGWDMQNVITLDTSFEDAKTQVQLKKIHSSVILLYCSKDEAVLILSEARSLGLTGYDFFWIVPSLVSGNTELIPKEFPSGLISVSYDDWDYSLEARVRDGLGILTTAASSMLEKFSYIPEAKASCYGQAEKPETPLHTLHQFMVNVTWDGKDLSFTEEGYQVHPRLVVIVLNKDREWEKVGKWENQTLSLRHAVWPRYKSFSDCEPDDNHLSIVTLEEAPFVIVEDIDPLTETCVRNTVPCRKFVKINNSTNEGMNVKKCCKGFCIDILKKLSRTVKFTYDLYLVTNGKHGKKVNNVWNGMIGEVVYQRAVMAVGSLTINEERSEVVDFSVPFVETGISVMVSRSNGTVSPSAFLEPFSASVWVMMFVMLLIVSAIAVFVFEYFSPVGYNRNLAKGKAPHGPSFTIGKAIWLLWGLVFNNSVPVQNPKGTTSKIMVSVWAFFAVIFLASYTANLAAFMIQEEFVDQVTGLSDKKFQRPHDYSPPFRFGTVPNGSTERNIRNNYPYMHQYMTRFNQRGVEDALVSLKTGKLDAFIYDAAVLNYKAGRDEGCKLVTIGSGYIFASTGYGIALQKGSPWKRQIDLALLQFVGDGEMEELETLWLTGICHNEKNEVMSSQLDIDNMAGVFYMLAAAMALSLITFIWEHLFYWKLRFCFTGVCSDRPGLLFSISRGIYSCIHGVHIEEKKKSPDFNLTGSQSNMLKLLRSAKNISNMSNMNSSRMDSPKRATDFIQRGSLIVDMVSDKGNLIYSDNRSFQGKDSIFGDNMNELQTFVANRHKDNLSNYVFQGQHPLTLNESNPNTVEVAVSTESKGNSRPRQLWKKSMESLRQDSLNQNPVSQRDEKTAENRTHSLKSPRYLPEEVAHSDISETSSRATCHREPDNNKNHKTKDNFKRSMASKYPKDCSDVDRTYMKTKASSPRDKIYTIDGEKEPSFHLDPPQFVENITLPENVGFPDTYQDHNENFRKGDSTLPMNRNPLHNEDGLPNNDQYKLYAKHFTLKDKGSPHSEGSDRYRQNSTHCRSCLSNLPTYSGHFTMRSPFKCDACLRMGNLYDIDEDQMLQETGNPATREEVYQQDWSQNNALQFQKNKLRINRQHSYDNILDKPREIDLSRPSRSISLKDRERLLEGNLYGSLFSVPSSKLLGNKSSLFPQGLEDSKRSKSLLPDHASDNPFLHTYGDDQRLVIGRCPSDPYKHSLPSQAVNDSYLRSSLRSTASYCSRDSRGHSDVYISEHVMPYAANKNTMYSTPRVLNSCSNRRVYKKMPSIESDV

Row | NMDA-induced calcium influx (Fura-2 video imaging) in HEK-293 cells transfected with GluN1-1b WT and GluN2A; potentiation after 20 min with tPA 300 nM (% of potentiation) [1] | NMDA-induced calcium influx (Fura-2 video imaging) in primary cultures of mouse cortical neurons; potentiation after 45 min with tPA 300 nM [2] [%] | NMDA-induced calcium influx in primary cultures of mouse cortical neurons; tPA 300 nM together with the antibody of clone 6C9B6 10 μg/ml (% of potentiation) [2] | NMDA-induced calcium influx in HEK-293 cells transfected with GluN1-1b WT, GluN2A and tPA WT; change after 20 min with the antibody Glunomab 10 μg/ml (% of potentiation) [3] | Substance
1 | 27 | 31 | 38 | – | Human tissue-type plasminogen activator (tPA, Actilyse) (enzyme)
2 | – | – | – | -18 | WT rat tissue-type plasminogen activator (tPA WT), expressed in HEK-293 cells (from UniProt P19637 33-559) (enzyme)
